Experimental findings from patent publication US20070202045A1 are described below.

Bridges are numbered along the chain shown (N, C = ends). Where no end group is shown, it is not given here.

Experiment [1] addresses rabbit albumin (rabbit) (UniProt P49065). Nature of the experiment: direct binding ELISA, immobilized albumin. For orientation: In an ELISA, binding on a coated surface is turned into a signal by an enzyme label.
The target of experiment [2] is rat albumin (rat) (UniProt P02770). Nature of the experiment: direct binding ELISA, immobilized albumin.
Chain of rat albumin (rat) (P02770 25-608 limits assumed): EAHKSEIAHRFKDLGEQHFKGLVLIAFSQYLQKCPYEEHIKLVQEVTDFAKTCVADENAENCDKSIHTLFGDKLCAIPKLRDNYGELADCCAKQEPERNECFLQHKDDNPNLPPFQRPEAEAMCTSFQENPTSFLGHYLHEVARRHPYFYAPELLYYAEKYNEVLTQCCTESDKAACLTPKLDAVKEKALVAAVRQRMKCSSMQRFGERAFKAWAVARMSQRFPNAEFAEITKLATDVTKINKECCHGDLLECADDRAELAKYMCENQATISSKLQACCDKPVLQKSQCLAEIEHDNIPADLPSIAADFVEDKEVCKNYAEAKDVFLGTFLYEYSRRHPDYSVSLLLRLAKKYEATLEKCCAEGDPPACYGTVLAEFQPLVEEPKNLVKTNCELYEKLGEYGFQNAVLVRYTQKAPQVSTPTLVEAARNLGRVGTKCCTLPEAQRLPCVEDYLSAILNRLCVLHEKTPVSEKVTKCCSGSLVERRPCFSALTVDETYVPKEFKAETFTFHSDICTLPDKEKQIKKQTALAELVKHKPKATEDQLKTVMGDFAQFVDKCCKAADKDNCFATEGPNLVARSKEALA
Experiment [3] addresses mouse albumin (mouse) (UniProt P07724). Nature of the experiment: solution binding ELISA; end of the range tied by Table 14 (41 nM).
Experiment [4] shares this target. Nature of the experiment: solution binding ELISA (Scatchard).
In experiment [5] the target is rat albumin (rat) (UniProt P02770). Kind of experiment: solution binding ELISA (Scatchard).
The target of experiment [6] is mouse albumin (mouse) (UniProt P07724). Kind of experiment: direct binding ELISA, immobilized albumin.
Chain of mouse albumin (mouse) (P07724 25-608 limits assumed): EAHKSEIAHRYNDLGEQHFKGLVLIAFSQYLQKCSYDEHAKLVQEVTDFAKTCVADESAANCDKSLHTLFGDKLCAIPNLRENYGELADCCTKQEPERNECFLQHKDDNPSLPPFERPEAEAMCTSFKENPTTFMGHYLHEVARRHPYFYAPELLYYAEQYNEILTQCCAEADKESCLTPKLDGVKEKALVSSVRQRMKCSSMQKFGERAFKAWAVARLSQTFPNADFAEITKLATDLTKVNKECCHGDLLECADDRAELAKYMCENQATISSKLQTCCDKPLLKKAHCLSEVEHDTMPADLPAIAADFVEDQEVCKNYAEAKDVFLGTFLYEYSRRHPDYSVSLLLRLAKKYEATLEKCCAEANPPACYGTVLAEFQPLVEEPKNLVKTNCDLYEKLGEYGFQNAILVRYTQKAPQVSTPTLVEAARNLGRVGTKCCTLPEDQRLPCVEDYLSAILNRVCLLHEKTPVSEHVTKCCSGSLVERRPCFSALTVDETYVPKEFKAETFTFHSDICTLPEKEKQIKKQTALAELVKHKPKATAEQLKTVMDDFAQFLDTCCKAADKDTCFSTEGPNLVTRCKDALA
In experiment [7] the target is rat albumin (rat) (UniProt P02770). Nature of the experiment: Kd for albumin as listed with the PK data (solution binding ELISA).

Chain of rabbit albumin (rabbit) (P49065 25-608 limits assumed): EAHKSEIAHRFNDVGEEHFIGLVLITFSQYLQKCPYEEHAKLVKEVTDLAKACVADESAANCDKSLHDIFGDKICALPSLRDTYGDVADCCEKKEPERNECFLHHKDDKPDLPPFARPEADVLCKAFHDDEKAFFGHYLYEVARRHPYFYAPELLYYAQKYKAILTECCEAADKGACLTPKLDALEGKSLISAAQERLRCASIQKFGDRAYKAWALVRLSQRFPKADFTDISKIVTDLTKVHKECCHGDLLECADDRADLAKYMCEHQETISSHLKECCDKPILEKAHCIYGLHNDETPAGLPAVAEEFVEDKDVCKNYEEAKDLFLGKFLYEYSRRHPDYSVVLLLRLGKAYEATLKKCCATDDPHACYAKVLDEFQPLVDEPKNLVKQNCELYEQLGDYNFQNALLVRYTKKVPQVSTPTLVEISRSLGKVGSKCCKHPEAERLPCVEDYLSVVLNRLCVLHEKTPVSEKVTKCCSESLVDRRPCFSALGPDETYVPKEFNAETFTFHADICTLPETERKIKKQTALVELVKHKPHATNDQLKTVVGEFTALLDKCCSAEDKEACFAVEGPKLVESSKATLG

Usually EC50 stands for the concentration giving half of the maximal effect. Regarding {Fab4D5 heavy chain (…CDKTH)}-DICLPRWGCLWED (Fab, part only; not given: carrier Fab4D5 heavy and light chains, not shown: another chain or arm of the molecule; large carriers, disulfide 3-9) [AB.Fab4D5-H4], the EC50 in experiment [1] was 500 nM.
In the case of {Fab4D5 heavy chain (…CDKTH)}-DICLPRWGCLW (Fab, part only; not given: carrier Fab4D5 heavy and light chains, not shown: another chain or arm of the molecule; large carriers, disulfide 3-9) [AB.Fab4D5-H10], the figures for the concentration giving a half-maximal response (EC50) in experiment [1] and in experiment [2] were over 2000 nM and 8 nM, respectively.
Broadly, the Kd is the concentration at which binding is half-saturated. Low readings indicate a tighter complex, high ones a looser complex. In turn, {Fab4D5 heavy chain (…CDKTH)}-IEDICLPRWGCLWE (Fab, part only; not given: carrier Fab4D5 heavy and light chains, not shown: another chain or arm of the molecule; large carriers, disulfide 5-11) [AB.Fab4D5-H8] returned a Kd in experiment [3] of 40 nM. Also, the EC50 in experiment [1] came to 500 nM.
{Fab4D5 heavy chain (…CDKTH)}-DICLPRWGCL (Fab, part only; not given: Carrier Fab (trastuzumab), not shown: another chain or arm of the molecule; large carriers, disulfide 3-9) [AB.Fab4D5-H11]: the results for the Kd in experiment [4], in experiment [5] and in experiment [7] were 1250 nM, 2430 nM and 2500 nM, respectively. The figures for the EC50 in experiment [6], in experiment [1] and in experiment [2] were over 2000 nM, over 2000 nM and over 1000 nM, respectively.
